The test system of experiment [1] is aortic valve vascular smooth muscle tissue. In words: ALP staining of aortic valve vascular smooth muscle tissue, osteocytogenesis level. It counts as in vivo, mice. The note with it: wild-type or eNOS-deficient mice treated with DPP-4 and IGF-1 at the same time; FIG. 2a. Here is the method:
Wild-type mice or eNOS-deficient mice which are animal models with the aortic valve calcification were treated with insulin-like growth factor type 1 (IGF-1) alone or treated with dipeptidyl-peptidase 4 (DPP-4) and IGF-1 at the same time. Then, ALP staining was performed on the aortic valve vascular smooth muscle tissue, thereby comparing the […] level of tissue (FIG. 2a). Here, the aortic valve vascular smooth muscle tissue of the wild-type mice treated with nothing or the eNOS-deficient mice was used as a control group.
FIG. 2a are an image and a graph showing verification of the effect of DPP-4 on an action of IGF-1 inhibiting osteocytogenesis in the aortic valve vascular smooth muscle tissue of the wild-type mice or the eNOS-deficient mice.

A further experiment deals with ERK or Akt. Nature of the experiment: Western blot of phosphorylation of intracellular signaling proteins ERK or Akt in aortic valve vascular smooth muscle tissue. It counts as in vivo. The note with it: eNOS-deficient mice treated with IGF-1 and DPP-4, 0, 5, 15 or 30 minutes; FIG. 2b. Here is the method:
Further, in order to confirm whether the activation level of the protein involved in intracellular signaling was changed by osteocytogenesis according to DPP-4, the eNOS-deficient mice were treated with IGF-1 alone for 0, 5, 15 or 30 minutes, or treated with DPP-4 and IGF-1 at the same time, and then, the aortic valve vascular smooth muscle tissue was extracted from these mice. Then, a phosphorylation level of ERK or Akt which is a protein involved in intracellular signaling expressed in the extracted tissues was compared by western blot analysis (FIG. 2b). Here, β-actin was used as an internal control group.
FIG. 2b is a Western blot analysis image showing a change in the phosphorylation level of ERK or Akt which is the protein involved in intracellular signaling according to whether the DPP-4 is treated in the eNOS-deficient mice treated with IGF-1.
Background: Immunoblotting shows a protein as a band on a membrane.

B1: DPP-4: antigenic enzyme, membrane-bound glycoprotein, also referred to as CD26; cleaves two N-terminal peptides including proline (protein)
chain: NKGTDDATADSRKTYTLTDYLKNTYRLKLYSLRWISDHEYLYKQENNILVFNAEYGNSSVFLENSTFDEFGHSINDYSISPDGQFILLEYNYVKQWRHSYTASYDIYDLNKRQLITEERIPNNTQWVTWSPVGHKLAYVWNNDIYVKIEPNLPSYRITWTGKEDIIYNGITDWVYEEEVFSAYSALWWSPNGTFLAYAQFNDTEVPLIEYSFYSDESLQYPKTVRVPYPKAGAVNPTVKFFVVNTDSLSSVTNATSIQITAPASMLIGDHYLCDVTWATQERISLQWLRRIQNYSVMDICDYDESSGRWNCLVARQHIEMSTTGWVGRFRPSEPHFTLDGNSFYKIISNEEGYRHICYFQIDKKDCTFITKGTWEVIGIEALTSDYLYYISNEYKGMPGGRNLYKIQLSDYTKVTCLSCELNPERCQYYSVSFSKEAKYYQLRCSGPGLPLYTLHSSVNDKGLRVLEDNSALDKMLQNVQMPSKKLDFIILNETKFWYQMILPPHFDKSKKYPLLLDVYAGPCSQKADTVFRLNWATYLASTENIIVASFDGRGSGYQGDKIMHAINRRLGTFEVEDQIEAARQFSKMGFVDNKRIAIWGWSYGGYVTSMVLGSGSGVFKCGIAVAPVSRWEYYDSVYTERYMGLPTPEDNLDHYRNSTVMSRAENFKQVEYLLIHGTADDNVHFQQSAQISKALVDVGVDFQAMWYTDEDHGIASSTAHQHIYTHMSHFIKQCFSLP
As for B1, in experiment [1], the “osteocytogenesis of aortic valve vascular smooth muscle tissue (ALP staining)” value is given as “intensified”. In addition, in the experiment with ERK or Akt, the “phosphorylation level of ERK or Akt” value is recorded as “reduced”.

(Values after US20180031580A1, “USE OF IGF-1 AS PROGNOSTIC FACTOR IN CALCIFICATION OF AORTIC VALVES” (THE ASAN FOUNDATION, priority 2015, published 2018).)
